Test results: publication PMC8108516 (Molecular Biology of the Cell, 2021)

Experiments:
Assay in all cases: pull-down
[1] = target: T1, GST tagged Pom1^FL (S. pombe, UniProt Q09690 1-1087)
T1 sequence (looked up): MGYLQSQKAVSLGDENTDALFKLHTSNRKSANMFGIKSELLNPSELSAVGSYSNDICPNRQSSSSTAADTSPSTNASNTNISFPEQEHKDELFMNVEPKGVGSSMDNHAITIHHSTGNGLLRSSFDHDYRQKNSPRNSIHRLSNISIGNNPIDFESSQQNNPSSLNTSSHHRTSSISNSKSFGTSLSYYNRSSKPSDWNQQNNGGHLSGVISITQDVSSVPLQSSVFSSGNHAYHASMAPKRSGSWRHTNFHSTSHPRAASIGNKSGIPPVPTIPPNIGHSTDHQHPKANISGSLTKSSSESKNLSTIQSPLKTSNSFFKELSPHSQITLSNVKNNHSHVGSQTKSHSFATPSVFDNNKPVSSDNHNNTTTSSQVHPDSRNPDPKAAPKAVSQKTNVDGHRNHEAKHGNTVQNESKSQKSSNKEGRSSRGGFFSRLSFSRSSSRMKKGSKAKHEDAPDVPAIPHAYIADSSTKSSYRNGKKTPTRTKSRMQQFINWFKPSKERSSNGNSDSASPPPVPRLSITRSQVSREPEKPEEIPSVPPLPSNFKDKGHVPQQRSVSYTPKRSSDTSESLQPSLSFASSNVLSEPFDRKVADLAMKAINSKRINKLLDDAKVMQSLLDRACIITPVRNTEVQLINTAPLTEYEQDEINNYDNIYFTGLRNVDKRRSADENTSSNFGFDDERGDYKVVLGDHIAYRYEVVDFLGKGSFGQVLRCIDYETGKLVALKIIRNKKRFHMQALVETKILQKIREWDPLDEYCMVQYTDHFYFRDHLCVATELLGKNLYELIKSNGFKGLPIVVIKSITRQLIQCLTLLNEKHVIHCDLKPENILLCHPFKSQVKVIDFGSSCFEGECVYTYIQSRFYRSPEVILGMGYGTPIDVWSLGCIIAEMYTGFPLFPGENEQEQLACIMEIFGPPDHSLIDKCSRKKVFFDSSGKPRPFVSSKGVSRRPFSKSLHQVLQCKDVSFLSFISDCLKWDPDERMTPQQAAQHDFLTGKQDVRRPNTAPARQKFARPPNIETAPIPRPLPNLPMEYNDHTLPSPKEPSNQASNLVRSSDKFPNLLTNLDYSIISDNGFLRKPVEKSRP

[2] = target: T2, GST tagged Pom1^aa605-1087 (S. pombe, UniProt Q09690 605-1087)
T2 sequence (looked up): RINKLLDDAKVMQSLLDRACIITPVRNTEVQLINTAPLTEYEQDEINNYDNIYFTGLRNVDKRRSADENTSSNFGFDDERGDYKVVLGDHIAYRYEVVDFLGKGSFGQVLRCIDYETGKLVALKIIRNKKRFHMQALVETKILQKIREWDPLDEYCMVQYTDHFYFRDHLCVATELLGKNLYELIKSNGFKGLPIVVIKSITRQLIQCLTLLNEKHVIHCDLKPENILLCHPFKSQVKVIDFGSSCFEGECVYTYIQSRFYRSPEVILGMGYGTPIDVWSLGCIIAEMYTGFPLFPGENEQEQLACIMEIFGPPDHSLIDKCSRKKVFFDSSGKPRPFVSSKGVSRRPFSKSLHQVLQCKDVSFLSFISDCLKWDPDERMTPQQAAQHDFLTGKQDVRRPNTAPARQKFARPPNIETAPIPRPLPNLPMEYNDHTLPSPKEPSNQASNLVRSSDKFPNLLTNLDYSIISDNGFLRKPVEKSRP

[3] = target: T3, GST tagged Pom1^Δaa305N (S. pombe, UniProt Q09690 306-1087)
T3 sequence (looked up): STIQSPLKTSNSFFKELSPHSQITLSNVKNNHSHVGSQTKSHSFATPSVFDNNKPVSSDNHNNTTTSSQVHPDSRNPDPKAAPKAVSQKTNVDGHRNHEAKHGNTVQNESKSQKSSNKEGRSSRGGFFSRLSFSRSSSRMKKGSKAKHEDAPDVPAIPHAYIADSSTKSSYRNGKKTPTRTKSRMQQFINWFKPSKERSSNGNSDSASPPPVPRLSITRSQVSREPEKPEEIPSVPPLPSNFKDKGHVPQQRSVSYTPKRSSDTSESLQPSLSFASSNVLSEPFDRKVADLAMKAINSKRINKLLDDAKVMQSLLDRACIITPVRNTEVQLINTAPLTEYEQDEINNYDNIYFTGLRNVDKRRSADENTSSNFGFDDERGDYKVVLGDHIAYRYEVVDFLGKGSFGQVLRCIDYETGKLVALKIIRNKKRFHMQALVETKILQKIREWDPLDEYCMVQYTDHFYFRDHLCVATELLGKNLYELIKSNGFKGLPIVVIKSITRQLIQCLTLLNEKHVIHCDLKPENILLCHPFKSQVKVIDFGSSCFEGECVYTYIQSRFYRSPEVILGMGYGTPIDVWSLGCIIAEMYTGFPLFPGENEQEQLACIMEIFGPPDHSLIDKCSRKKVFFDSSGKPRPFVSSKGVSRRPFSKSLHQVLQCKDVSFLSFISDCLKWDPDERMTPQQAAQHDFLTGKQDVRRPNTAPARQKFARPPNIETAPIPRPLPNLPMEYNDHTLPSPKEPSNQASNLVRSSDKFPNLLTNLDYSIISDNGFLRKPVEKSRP

Measured: binding result

B1: MBP-tagged Ptc1^FL (enzyme, S. pombe, UniProt P40371 1-347, looked up)
chain: MKGSHPNAGSLLEPLHKLNPFSENSTSGHRKNASDHSADGETRPIAIEMKDSKGNTVPVGNSRPSKASNWLAGLMEDKNQRWRRSMEDTHICLYDFGGNQDDGFVAVYDGHAGIQASDYCQKNLHKVLLEKVRNEPDRLVTDLMDETFVEVNSKIAKATHNDICGCTAAVAFFRYEKNRTRRVLYTANAGDARIVLCRDGKAIRLSYDHKGSDANESRRVTQLGGLMVQNRINGVLAVTRALGDTYLKELVSAHPFTTETRIWNGHDEFFIIACDGLWDVVSDQEAVDFVRNFVSPREAAVRLVEFALKRLSTDNITCIVVNLTRNPGDLDDSGLTADNDSYSNDYY
binds: [1] | [2] | [3]
